Measurements: the supplement of paper PMC10065799, “High-throughput profiling of sequence recognition by tyrosine kinases and SH2 domains using bacterial peptide display” (eLife, 2023)

What follows are sequences tested on c-Src (assay: phosphorylation enrichment, bacterial display (enrichment ratio); higher = better substrate or ligand; peptides without Tyr show the background).
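Wherever SH2 binding enrichment of the phosphorylated peptide, bacterial display is given: peptide library displayed on the E. coli surface as eCPX fusions, selected cells deep-sequenced, score is each peptide's frequency after selection divided by its frequency in the input.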
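Wherever phosphorylation enrichment, bacterial display is given: 11-residue human phosphosite peptides and single-mutation variants displayed on the E. coli surface, counted by deep sequencing, each peptide's frequency after selection divided by its frequency in the unselected input library; frequency after pTyr selection over input frequency; kinase dosed for 20-30% of maximal phosphorylation in three min.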

Sequence	phosphorylation enrichment
HHIDYYKETTN [FGFR1_Y654_K656E]	0.997
FTDPFYDFEIE [ZC3H18_Y372_A368T_YF]	4.96
HSPLRYTSILT [OR51B6_Y130_R125H]	0.574
IKNSGYISRFL [EIF2AK3_Y585_YF]	0.43
IKKLIYVHLVI [JAGN1_Y42]	0.424
FFCKFYNKSED [RYR1_Y4864_R4861C]	0.489
RLNCIYYKDQT [RS1_Y165_W163C]	1.74
ASNFNYFFHRE [KCNA1_Y413_V408A_YF]	0.43
RGRSTYYWPRP [GAGE12J_Y9]	0.494
EEGNPYYSSAR [MCCC2_Y520]	1.99
DIPIRYSIMGV [CDH4_Y205_T208M]	0.448
RQQEDYLLFKQ [RARRES1_Y159_YF]	0.576
LKGQVDILGRE [ASS1_Y359_Y359D]	0.764
QDRTFYERVRT [SPEN_Y633_S635R_YF]	0.402
KKYPDYIQSAM [SGMS2_Y59_I62S]	0.428
TTASRYLKVSD [MYOM2_Y871_N869S]	0.362
SYPHEYGSQEG [RBM10_Y48_R46H]	0.415

Sequence	phosphorylation enrichment
FAELVYTGFWH [ASS1_Y322]	7.01
RALLNYIASKF [GSTA3_Y74_I71L_YF]	0.587
IHHIDYYKKTT [FGFR1_Y653]	0.487
MARDIYQASYY [LTK_Y672_R673Q]	6.26
KFWREYILSLE [GPC3_Y299_YF]	0.588
KGELCYMHSRV [ABCD1_Y281_R280C]	0.402
SFMVRYNQPRV [GRIN2D_Y736_YF]	0.398
EMTAEYTCTRK [ACAD9_Y325_A326T]	0.477
IFHLSYIHNCE [PDE6B_Y227_L228I_YF]	0.352
PGAGHYEDTIL [ALK_Y1604]	0.391
LLKAGYHGVLR [TTPA_Y100]	0.906
KPRKLYTIKKP [BRD2_Y715_P714L]	0.442
GHNDVYISKHV [GRIN2A_Y1423_E1426K]	0.352
VASIFYTLVIP [OR8K3_Y277]	0.945
SHNELYYEAAE [VANGL1_Y344_E347A]	1.17
DVRQEYPGMIL [PLXND1_Y616]	0.403

What follows are sequences tested against Grb2 SH2 (UniProt P62993) (assay: SH2 binding enrichment of the phosphorylated peptide, bacterial display (enrichment ratio); higher = better substrate or ligand; peptides without Tyr show the background).
Grb2 SH2, sequence (P62993 whole entry, looked up): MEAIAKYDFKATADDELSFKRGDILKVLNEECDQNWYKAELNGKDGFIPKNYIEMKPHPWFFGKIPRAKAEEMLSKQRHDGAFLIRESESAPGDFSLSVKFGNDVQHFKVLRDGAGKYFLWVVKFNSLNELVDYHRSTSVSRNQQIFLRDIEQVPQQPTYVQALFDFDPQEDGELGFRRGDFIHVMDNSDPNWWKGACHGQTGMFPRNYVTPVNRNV

Sequence	SH2 binding enrichment
HHIDYYKETTN [FGFR1_Y654_K656E]	0.985
FTDPFYDFEIE [ZC3H18_Y372_A368T_YF]	0.995
HSPLRYTSILT [OR51B6_Y130_R125H]	1.21
IKNSGYISRFL [EIF2AK3_Y585_YF]	1.24
IKKLIYVHLVI [JAGN1_Y42]	1.1
FFCKFYNKSED [RYR1_Y4864_R4861C]	0.433
RLNCIYYKDQT [RS1_Y165_W163C]	1.15
ASNFNYFFHRE [KCNA1_Y413_V408A_YF]	1.31
RGRSTYYWPRP [GAGE12J_Y9]	0.8
EEGNPYYSSAR [MCCC2_Y520]	0.818
DIPIRYSIMGV [CDH4_Y205_T208M]	0.894
RQQEDYLLFKQ [RARRES1_Y159_YF]	0.892
LKGQVDILGRE [ASS1_Y359_Y359D]	1.01
QDRTFYERVRT [SPEN_Y633_S635R_YF]	0.603
KKYPDYIQSAM [SGMS2_Y59_I62S]	0.883
TTASRYLKVSD [MYOM2_Y871_N869S]	0.534
SYPHEYGSQEG [RBM10_Y48_R46H]	0.825

Sequence	SH2 binding enrichment
FAELVYTGFWH [ASS1_Y322]	0.87
RALLNYIASKF [GSTA3_Y74_I71L_YF]	0.842
IHHIDYYKKTT [FGFR1_Y653]	0.793
MARDIYQASYY [LTK_Y672_R673Q]	1.12
KFWREYILSLE [GPC3_Y299_YF]	1.27
KGELCYMHSRV [ABCD1_Y281_R280C]	1.31
SFMVRYNQPRV [GRIN2D_Y736_YF]	1.1
EMTAEYTCTRK [ACAD9_Y325_A326T]	0.632
IFHLSYIHNCE [PDE6B_Y227_L228I_YF]	0.976
PGAGHYEDTIL [ALK_Y1604]	0.797
LLKAGYHGVLR [TTPA_Y100]	1.45
KPRKLYTIKKP [BRD2_Y715_P714L]	1.07
GHNDVYISKHV [GRIN2A_Y1423_E1426K]	0.79
VASIFYTLVIP [OR8K3_Y277]	1.22
SHNELYYEAAE [VANGL1_Y344_E347A]	0.726
DVRQEYPGMIL [PLXND1_Y616]	0.889

Each sequence was assayed against SHP2-C SH2 in the same assay as above.

Sequence	SH2 binding enrichment
HHIDYYKETTN [FGFR1_Y654_K656E]	0.996
FTDPFYDFEIE [ZC3H18_Y372_A368T_YF]	0.657
HSPLRYTSILT [OR51B6_Y130_R125H]	9.46
IKNSGYISRFL [EIF2AK3_Y585_YF]	1.1
IKKLIYVHLVI [JAGN1_Y42]	0.775
FFCKFYNKSED [RYR1_Y4864_R4861C]	0.586
RLNCIYYKDQT [RS1_Y165_W163C]	0.456
ASNFNYFFHRE [KCNA1_Y413_V408A_YF]	1.03
RGRSTYYWPRP [GAGE12J_Y9]	0.55
EEGNPYYSSAR [MCCC2_Y520]	0.674
DIPIRYSIMGV [CDH4_Y205_T208M]	2.51
RQQEDYLLFKQ [RARRES1_Y159_YF]	0.838
LKGQVDILGRE [ASS1_Y359_Y359D]	0.582
QDRTFYERVRT [SPEN_Y633_S635R_YF]	4.46
KKYPDYIQSAM [SGMS2_Y59_I62S]	0.746
TTASRYLKVSD [MYOM2_Y871_N869S]	0.54
SYPHEYGSQEG [RBM10_Y48_R46H]	0.699

Sequence	SH2 binding enrichment
FAELVYTGFWH [ASS1_Y322]	0.698
RALLNYIASKF [GSTA3_Y74_I71L_YF]	0.579
IHHIDYYKKTT [FGFR1_Y653]	1.22
MARDIYQASYY [LTK_Y672_R673Q]	1.03
KFWREYILSLE [GPC3_Y299_YF]	1.31
KGELCYMHSRV [ABCD1_Y281_R280C]	0.883
SFMVRYNQPRV [GRIN2D_Y736_YF]	0.959
EMTAEYTCTRK [ACAD9_Y325_A326T]	0.638
IFHLSYIHNCE [PDE6B_Y227_L228I_YF]	0.856
PGAGHYEDTIL [ALK_Y1604]	0.559
LLKAGYHGVLR [TTPA_Y100]	1.25
KPRKLYTIKKP [BRD2_Y715_P714L]	1.19
GHNDVYISKHV [GRIN2A_Y1423_E1426K]	0.651
VASIFYTLVIP [OR8K3_Y277]	1.51
SHNELYYEAAE [VANGL1_Y344_E347A]	0.922
DVRQEYPGMIL [PLXND1_Y616]	0.555

The sequences below were run against c-Src SH2 in the same assay as above.

Sequence	SH2 binding enrichment
HHIDYYKETTN [FGFR1_Y654_K656E]	1.47
FTDPFYDFEIE [ZC3H18_Y372_A368T_YF]	0.441
HSPLRYTSILT [OR51B6_Y130_R125H]	5.39
IKNSGYISRFL [EIF2AK3_Y585_YF]	0.793
IKKLIYVHLVI [JAGN1_Y42]	0.631
FFCKFYNKSED [RYR1_Y4864_R4861C]	0.42
RLNCIYYKDQT [RS1_Y165_W163C]	0.527
ASNFNYFFHRE [KCNA1_Y413_V408A_YF]	0.6
RGRSTYYWPRP [GAGE12J_Y9]	0.501
EEGNPYYSSAR [MCCC2_Y520]	2.06
DIPIRYSIMGV [CDH4_Y205_T208M]	1.31
RQQEDYLLFKQ [RARRES1_Y159_YF]	0.571
LKGQVDILGRE [ASS1_Y359_Y359D]	0.595
QDRTFYERVRT [SPEN_Y633_S635R_YF]	2.36
KKYPDYIQSAM [SGMS2_Y59_I62S]	0.394
TTASRYLKVSD [MYOM2_Y871_N869S]	0.515
SYPHEYGSQEG [RBM10_Y48_R46H]	0.441

Sequence	SH2 binding enrichment
FAELVYTGFWH [ASS1_Y322]	0.524
RALLNYIASKF [GSTA3_Y74_I71L_YF]	0.49
IHHIDYYKKTT [FGFR1_Y653]	0.567
MARDIYQASYY [LTK_Y672_R673Q]	0.919
KFWREYILSLE [GPC3_Y299_YF]	0.932
KGELCYMHSRV [ABCD1_Y281_R280C]	0.632
SFMVRYNQPRV [GRIN2D_Y736_YF]	0.894
EMTAEYTCTRK [ACAD9_Y325_A326T]	0.41
IFHLSYIHNCE [PDE6B_Y227_L228I_YF]	0.853
PGAGHYEDTIL [ALK_Y1604]	3.04
LLKAGYHGVLR [TTPA_Y100]	1.05
KPRKLYTIKKP [BRD2_Y715_P714L]	0.972
GHNDVYISKHV [GRIN2A_Y1423_E1426K]	0.395
VASIFYTLVIP [OR8K3_Y277]	1.01
SHNELYYEAAE [VANGL1_Y344_E347A]	1.4
DVRQEYPGMIL [PLXND1_Y616]	0.433
